Laboratory results from patent US6905818 (MAX PLANCK GESELLSCHAFT ZUR FORDERUNGDER WISSENSCHAFTEN, dated 2005).

Target: T1, LexA protein expressed from pBTM117c (UniProt P0A7C2 1-202)
T1 construct: range 1-220; also called strain x1a
T1 sequence (looked up): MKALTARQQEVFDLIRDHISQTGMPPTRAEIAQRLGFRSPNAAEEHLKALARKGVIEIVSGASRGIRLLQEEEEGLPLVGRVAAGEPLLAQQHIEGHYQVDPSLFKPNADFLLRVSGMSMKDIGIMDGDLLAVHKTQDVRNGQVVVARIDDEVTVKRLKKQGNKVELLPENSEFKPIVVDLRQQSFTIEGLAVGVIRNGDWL
Experiment: yeast two-hybrid, growth on SD-leu-trp-his and β-galactosidase membrane assay
Description: Two transformants from each transformation were investigated for the presence of protein—protein interactions by testing the ability of the yeast cells to grow on SD-leu-trp, SD-leu-trp-his, SD-leu+CAN and SD-trp+CHX plates and by the β-galactosidase membrane assay (Breeden and Nasmyth, 1985). […] After selection of the yeast strains harboring the different combinations of the two-hybrid plasmids on SD-leu+CAN and SD-trp+CHX the resulting strains were also analyzed by the β-galactosidase assay. After incubating the membrane containing all three strains on SD-trp+CHX medium only progeny of the yeast strain that originally harbored both the plasmids pBTM117c-HIP1 & pGAD427 yet which had lost the pGAD427 plasmid through counterselection turned blue after incubating in X-Gal solution. […] In comparison, the yeast strain harboring both the plasmids pBTM117c-SIM1 & pGAD427-ARNT is a positive clone that expresses interacting LexA and GAL4ad fusion proteins, because both the LexA and the Gal4ad fusion proteins are necessary for the activation of the reporter genes. […] With the membranes from the SD-leu+CAN plate false positive clones expressing an auto-activating GAL4ad-LexA fusion protein were also detected by the β-galactosidase assay.

B1: GAL4ad expressed from pGAD427 (other, yeast, UniProt P04386 768-881, looked up)
chain: ANFNQSGNIADSSLSFTFTNSSNGPNLITTQTNSQALSQPIASSNVHDNFMNNEITASKIDDGNNSKPLSPGWTDQTAYNAFGITTGMFNTTTMDDVYNYLFDDEDTPPNPKKE
notes: range 768-881; also called strain y1α
- binding result: no binding
